Literature values as cited in publication PMC8070608.
Read-outs that look alike come from different tables or passages of the source.

Legend:
[1] = target: plasminogen (Homo sapiens) (UniProt P00747)
tPA (Homo sapiens) [2] = target: tPA (Homo sapiens) (UniProt P00750)
tPA (Homo sapiens) [3] = target: tPA (Homo sapiens) (UniProt P00750); remark: listed apart in the source

Chain of UniProt P00750 (P00750 36-562): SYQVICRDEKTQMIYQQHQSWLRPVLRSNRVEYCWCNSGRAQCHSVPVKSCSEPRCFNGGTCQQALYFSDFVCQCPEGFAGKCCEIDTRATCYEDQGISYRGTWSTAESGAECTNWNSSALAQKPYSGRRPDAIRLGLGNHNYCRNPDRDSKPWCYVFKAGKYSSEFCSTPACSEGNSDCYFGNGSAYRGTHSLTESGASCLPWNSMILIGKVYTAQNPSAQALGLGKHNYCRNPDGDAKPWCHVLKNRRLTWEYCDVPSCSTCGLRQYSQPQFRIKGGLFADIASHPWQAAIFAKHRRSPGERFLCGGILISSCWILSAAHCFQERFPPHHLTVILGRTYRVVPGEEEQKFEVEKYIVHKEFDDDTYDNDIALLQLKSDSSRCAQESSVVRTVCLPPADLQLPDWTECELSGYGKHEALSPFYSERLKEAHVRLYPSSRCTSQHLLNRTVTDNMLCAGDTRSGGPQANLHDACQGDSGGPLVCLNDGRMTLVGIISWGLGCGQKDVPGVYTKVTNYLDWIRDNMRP
Chain of UniProt P00747 (P00747 20-810): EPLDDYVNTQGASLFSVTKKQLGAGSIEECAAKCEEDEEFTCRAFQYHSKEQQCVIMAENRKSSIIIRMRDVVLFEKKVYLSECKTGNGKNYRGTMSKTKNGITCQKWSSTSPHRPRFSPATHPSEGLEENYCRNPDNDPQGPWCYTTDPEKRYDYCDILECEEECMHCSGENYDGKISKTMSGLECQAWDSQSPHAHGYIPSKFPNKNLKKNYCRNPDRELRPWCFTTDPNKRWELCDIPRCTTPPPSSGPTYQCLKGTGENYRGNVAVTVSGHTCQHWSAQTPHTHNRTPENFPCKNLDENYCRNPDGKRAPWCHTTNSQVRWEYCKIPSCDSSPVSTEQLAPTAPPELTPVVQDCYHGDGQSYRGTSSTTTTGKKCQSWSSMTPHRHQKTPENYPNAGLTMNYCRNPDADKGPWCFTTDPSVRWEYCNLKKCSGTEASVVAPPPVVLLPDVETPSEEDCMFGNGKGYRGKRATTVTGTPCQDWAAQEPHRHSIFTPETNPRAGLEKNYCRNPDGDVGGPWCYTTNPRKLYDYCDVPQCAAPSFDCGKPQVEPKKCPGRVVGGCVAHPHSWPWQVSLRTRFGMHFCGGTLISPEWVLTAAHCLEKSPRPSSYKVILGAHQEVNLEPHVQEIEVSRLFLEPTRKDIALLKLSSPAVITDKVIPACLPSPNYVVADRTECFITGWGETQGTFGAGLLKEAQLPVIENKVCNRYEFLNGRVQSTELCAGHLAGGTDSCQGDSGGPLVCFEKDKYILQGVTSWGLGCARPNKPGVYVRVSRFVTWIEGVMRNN

Row | Kd [1] | Kd (tPA (Homo sapiens) [2]) | Kd (tPA (Homo sapiens) [3]) | Substance
1 | 110 nM | 680 nM | – | p11 (from UniProt P60903)
2 | – | – | 48 nM | p36 (annexin A2) (from UniProt P07355)
